Measurements as given in patent US20040087013, “Stable macroscopic membranes formed by self-assembly of amphiphilic peptides and uses therefor” (published 2004).

Molecular target: T1, zuotin (ZUO1), yeast-purified fractions (Saccharomyces cerevisiae, UniProt P32527 SEQ:1-433)
T1 sequence: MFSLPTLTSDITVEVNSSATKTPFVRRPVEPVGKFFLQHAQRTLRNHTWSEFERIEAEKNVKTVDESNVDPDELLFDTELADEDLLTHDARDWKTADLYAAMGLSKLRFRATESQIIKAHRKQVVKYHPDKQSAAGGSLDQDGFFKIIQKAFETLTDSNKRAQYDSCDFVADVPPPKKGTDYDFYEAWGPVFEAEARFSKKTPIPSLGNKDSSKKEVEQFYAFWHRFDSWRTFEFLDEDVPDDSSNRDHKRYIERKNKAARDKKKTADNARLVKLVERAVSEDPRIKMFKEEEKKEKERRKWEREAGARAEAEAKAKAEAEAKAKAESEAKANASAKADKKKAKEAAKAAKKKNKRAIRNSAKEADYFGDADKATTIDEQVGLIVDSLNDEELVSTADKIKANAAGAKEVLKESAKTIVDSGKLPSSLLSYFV
Experiment: EMSA; fraction FI; 2000-fold excess salmon sperm DNA
Conditions: tags: none; label: 32P; left-handed Z-DNA, 44mer alternating dG-Br5dC
Description: In order to determine if these band shifts were the result of authentic Z-DNA binding, negatively supercoiled plasmids of pUC19 and pUC19(GC) were used as competitor DNAs in gel retardation competition assays.
A gel retardation assay was employed to detect proteins with affinity to left-handed Z-DNA. In these assays, two kinds of left-handed DNA probes were used. […] The other probe was derived from a synthetic 44mer oligo(dG-Br⁵dC)₂₂, labelled using Klenow polymerase with [α-³²P]dGTP, and stabilized in the Z-DNA conformation by 10 mM MgCl₂, or 0.1 mM Co(NH₃)₆³⁺. […] In the competition assays, supercoiled pUC19 and pUC19(CG) were added to the reaction samples separately. […] After electrophoresis, the gel was dried and exposed to X-ray film.

B1: oligo (dG-Br5dC)22 Z-form (dsDNA)
DNA 1: GCGCGCGCGCGCGCGCGCGCGCGCGCGCGCGCGCGCGCGCGCGC
DNA 2: B1 DNA 1
modifications: 5-bromo-dC at all C [5-bromo-dC at all C (2,4,6,8,10,12,14,16,18,20,22,24,26,28,30,32,34,36,38,40,42,44 of each strand)]
- binding result: binds
